Columns and labels:
[1] = ref [45]; cited from earlier work
From the text: An interesting feature of the S100A4/myosin-IIA complex is that myosin-IIA residues contributing to the coiled-coil interface also mediate S100A4 binding.

[2] = molecular target: T1, S100A4 (Homo sapiens, UniProt P26447); experiment: Sedimentation velocity of MIIA^1851-1960, S100A4 and S100A4/MIIA^1851-1960 mixtures; type: physicochemical; settings: sedimentation velocity, protein alone
T1 construct: heteronuclear single quantum coherence spectrum (HSQC) of full-length Ca^2+-S100A4 at 600 MHz; made in house; host or cells: E. coli, M9 medium with 15N NH4Cl (BL21(DE3)* is named for the unlabelled protein)
T1 sequence (P26447 2-101 limits assumed, one chain of several): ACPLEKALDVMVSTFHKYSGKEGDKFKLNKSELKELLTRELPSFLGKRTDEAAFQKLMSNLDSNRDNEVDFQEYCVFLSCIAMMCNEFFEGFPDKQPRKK
Experimental: (§1) Sedimentation equilibrium and velocity experiments were conducted at 22°C in a Beckman XL-I analytical ultracentrifuge using a Ti60 rotor and Raleigh interference optics. Wild-type S100A4 and MIIA^1851-1960 were dialyzed into 20 mM Tris pH 7.5, 150 mM KCl, 0.5 mM CaCl2, 1 mM TCEP and 0.02% NaN3 and clarified by ultracentrifugation at 80,000 rpm for 10 minutes at 4°C in TLA 120.2 rotor. Sedimentation equilibrium analysis of MIIA^1851-1960 and S100A4 was conducted in six channel centerpieces by sequentially equilibrating the protein at three concentrations for 24 hr at 12,000, 20,000 and 28,000 rpm and globally analyzing the data using HeteroAnalysis v1.1.44 (James L. Cole and Jeffrey W. Lary). The sedimentation velocity experiments were conducted at 53,000 rpm using double sector centerpieces and analyzed using DCDT + v2.4.0 [57, 58]. The best-fit parameters and their 95% joint confidence intervals are reported. The calculated masses of the wild-type S100A4 and MIIA^1851-1960 monomers are 11,597.3 and 12,397.5 Da, respectively. Values of ν-bar = 0.715 for S100A4/MIIA^851-1960 and 0.735 for S100A4, ρ = 1.0059, μ = 1.00586 cp were calculated using Sednterp v1.06 (Hayes, B., T. Laue & J. Philo, Sedimentation Interpretation Program. 2003, University of New Hampshire) from the amino acid and buffer compositions, respectively.

[3] = Circular dichroism: secondary structure and thermal stability; type: physicochemical
Experimental: MIIA^1851-1960 was dialyzed into 20 mM Tris pH 7.5, 150 mM KCl, 0.5 mM CaCl2, 0.02% NaN3 and clarified by ultracentrifugation at 80,000 rpm for 10 minutes at 4°C in TLA 120.2 rotor. MIIA^1851-1960 (40 μM monomer concentration) was transferred to a 1 mm path-length quartz cuvette and scanned in Jasco J-815 Spectrometer equipped with a PFD-425 temperature controller. Spectra from 190 to 260 nm were obtained at 22°C using a scan speed of 100 nm/minute, a 1 nm bandwidth, and a sensitivity of 100 mdeg. Thermal melt curves were obtained by monitoring ellipticity at 222 nm while the sample temperature was increased from 2 – 85°C in 2°C intervals at a rate of 60°C/h, using a 1 nm bandwidth. The data were fit to a sigmoidal dose–response with a variable slope using Graphpad Prism v5.

[4] = Sedimentation equilibrium of MIIA^1851-1960 and S100A4/MIIA^1851-1960 mixtures; type: physicochemical, human; settings: 22°C, MIIA^1851-1960 alone, 20 mM Tris pH 7.5, 150 mM KCl, 0.5 mM CaCl2, 1 mM TCEP, 0.02% NaN3, predicted 24,795
Experimental: as §1

[5] = molecular target: T1, S100A4; experiment: as above; type: physicochemical; settings: 22°C
Experimental: as §1

Molecule | Tm [1] [°C] | Peak 1 S20,w ([2]; 22°C, 53,000 rpm, 20 mM Tris pH 7.5, 150 mM KCl, 0.5 mM CaCl2, 1 mM TCEP, 0.02% NaN3) | Peak 1 MW ([2]; 22°C) [kDa] | S value ([2]; 22°C) [S] | [Peak 1] (green), relative amount of plateau concentrations ([2]; 22°C) | Reversibility of thermal unfolding ([3]; CD, 222 nm, data not shown) | Transition midpoint (Tm) for unfolding ([3]; CD, ellipticity at 222 nm, 40 μM monomer, 20 mM Tris pH 7.5, 150 mM KCl, 0.5 mM CaCl2, 0.02% NaN3, 2 – 85°C at 60°C/h, average of two independent experiments) [°C] | Secondary structure by CD ([3]; far-UV, 190 to 260 nm, 22°C, 40 μM MIIA^1851-1960 monomer, pH 7.5) | Experimental MW (weight-average molecular mass) [4] | Oligomeric state [5]
myosin-IIA rod (residues 1102–1960): myosin-IIA rod, residues 1102–1960 (protein, UniProt P35579 1102-1960, looked up, fragment) ALKKIRELESQISELQEDLESERASRNKAEKQKRDLGEELEALKTELEDTLDSTAAQQELRSKREQEVNILKKTLEEEAKTHEAQIQEMRQKHSQAVEELAEQLEQTKRVKANLEKAKQTLENERGELANEVKVLLQGKGDSEHKRKKVEAQLQELQVKFNEGERVRTELADKVTKLQVELDNVTGLLSQSDSKSSKLTKDFSALESQLQDTQELLQEENRQKLSLSTKLKQVEDEKNSFREQLEEEEEAKHNLEKQIATLHAQVADMKKKMEDSVGCLETAEEVKRKLQKDLEGLSQRHEEKVAAYDKLEKTKTRLQQELDDLLVDLDHQRQSACNLEKKQKKFDQLLAEEKTISAKYAEERDRAEAEAREKETKALSLARALEEAMEQKAELERLNKQFRTEMEDLMSSKDDVGKSVHELEKSKRALEQQVEEMKTQLEELEDELQATEDAKLRLEVNLQAMKAQFERDLQGRDEQSEEKKKQLVRQVREMEAELEDERKQRSMAVAARKKLEMDLKDLEAHIDSANKNRDEAIKQLRKLQAQMKDCMRELDDTRASREEILAQAKENEKKLKSMEAEMIQLQEELAAAERAKRQAQQERDELADEIANSSGKGALALEEKRRLEARIAQLEEELEEEQGNTELINDRLKKANLQIDQINTDLNLERSHAQKNENARQQLERQNKELKVKLQEMEGTVKSKYKASITALEAKIAQLEEQLDNETKERQAACKQVRRTEKKLKDVLLQVDDERRNAEQYKDQADKASTRLKQLKRQLEEAEEEAQRANASRRKLQRELEDATETADAMNREVSSLKNKLRRGDLPFVVPRRMARKGAGDGSDEEVDGKADGAEAKPAE | 45 |  |  |  |  |  |  |  |  | 
MIIA^1851-1960: C-terminal fragment of the human myosin-IIA heavy chain that corresponds to residues 1851–1960 (protein) VDDERRNAEQYKDQADKASTRLKQLKRQLEEAEEEAQRANASRRKLQRELEDATETADAMNREVSSLKNKLRRGDLPFVVPRRMARKGAGDGSDEEVDGKADGAEAKPAE |  | 1.91 ± 0.01 | 18.5 ± 0.2 | 1.91 | 2.09 ± 0.02 | reversible | 27 | primarily α-helical | 25,651 ± 308 Da | we did not detect any monomer

From PMC3924328, “Structure of the S100A4/myosin-IIA complex” (BMC Structural Biology, 2013)
